Molecular target: flt3_human FLT3 (UniProt P36888)
Sequence (P36888 whole entry): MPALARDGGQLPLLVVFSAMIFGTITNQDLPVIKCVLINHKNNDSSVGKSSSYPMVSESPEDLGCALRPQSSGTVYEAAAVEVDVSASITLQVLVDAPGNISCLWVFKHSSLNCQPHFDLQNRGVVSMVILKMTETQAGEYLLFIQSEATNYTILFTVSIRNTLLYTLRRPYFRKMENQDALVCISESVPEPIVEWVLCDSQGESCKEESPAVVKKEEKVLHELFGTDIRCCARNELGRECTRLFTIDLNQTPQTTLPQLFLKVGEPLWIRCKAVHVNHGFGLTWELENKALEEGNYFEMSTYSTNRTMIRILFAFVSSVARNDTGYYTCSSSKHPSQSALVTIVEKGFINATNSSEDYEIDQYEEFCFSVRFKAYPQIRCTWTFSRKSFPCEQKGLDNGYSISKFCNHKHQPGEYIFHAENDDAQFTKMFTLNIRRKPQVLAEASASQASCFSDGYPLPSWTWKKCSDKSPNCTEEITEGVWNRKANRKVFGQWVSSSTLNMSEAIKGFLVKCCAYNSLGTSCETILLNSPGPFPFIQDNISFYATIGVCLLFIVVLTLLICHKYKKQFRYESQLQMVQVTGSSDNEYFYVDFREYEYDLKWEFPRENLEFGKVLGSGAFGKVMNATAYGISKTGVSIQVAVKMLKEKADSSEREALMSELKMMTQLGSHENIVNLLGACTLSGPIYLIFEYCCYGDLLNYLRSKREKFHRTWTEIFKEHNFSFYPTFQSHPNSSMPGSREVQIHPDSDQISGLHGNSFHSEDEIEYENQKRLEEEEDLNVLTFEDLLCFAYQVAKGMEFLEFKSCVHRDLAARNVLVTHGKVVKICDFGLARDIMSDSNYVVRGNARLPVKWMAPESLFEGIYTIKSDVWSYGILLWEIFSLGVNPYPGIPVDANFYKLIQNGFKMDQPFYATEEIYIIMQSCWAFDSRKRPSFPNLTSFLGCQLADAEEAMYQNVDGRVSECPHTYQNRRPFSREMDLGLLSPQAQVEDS

effect of a mutation on the interaction: decreasing interaction
Substance: Tyrosine-protein kinase SYK (Homo sapiens) (from UniProt P43405) R195G;R197L
